Results: patent US6638907 (BIOSTRATUM, dated 2003)
Blank lines part the entries; values can stand above or below the molecule they belong to.

Columns and labels:
[1] = target: integrin α6β1 on bovine adrenal microvascular endothelial (BCE) cells (bovine) (UniProt P53712); assay: cell-based or functional assay
[2] = target: α6-subunit containing integrins on mouse IBE (Immortomouse brain capillary endothelial) cells; assay: cell-based or functional assay
[3] = target: integrin α2 on HT-1080 cells (human) (UniProt P17301); assay: cell-based or functional assay
Sequence of integrin α2 on HT-1080 cells (human) (P17301 30-1181): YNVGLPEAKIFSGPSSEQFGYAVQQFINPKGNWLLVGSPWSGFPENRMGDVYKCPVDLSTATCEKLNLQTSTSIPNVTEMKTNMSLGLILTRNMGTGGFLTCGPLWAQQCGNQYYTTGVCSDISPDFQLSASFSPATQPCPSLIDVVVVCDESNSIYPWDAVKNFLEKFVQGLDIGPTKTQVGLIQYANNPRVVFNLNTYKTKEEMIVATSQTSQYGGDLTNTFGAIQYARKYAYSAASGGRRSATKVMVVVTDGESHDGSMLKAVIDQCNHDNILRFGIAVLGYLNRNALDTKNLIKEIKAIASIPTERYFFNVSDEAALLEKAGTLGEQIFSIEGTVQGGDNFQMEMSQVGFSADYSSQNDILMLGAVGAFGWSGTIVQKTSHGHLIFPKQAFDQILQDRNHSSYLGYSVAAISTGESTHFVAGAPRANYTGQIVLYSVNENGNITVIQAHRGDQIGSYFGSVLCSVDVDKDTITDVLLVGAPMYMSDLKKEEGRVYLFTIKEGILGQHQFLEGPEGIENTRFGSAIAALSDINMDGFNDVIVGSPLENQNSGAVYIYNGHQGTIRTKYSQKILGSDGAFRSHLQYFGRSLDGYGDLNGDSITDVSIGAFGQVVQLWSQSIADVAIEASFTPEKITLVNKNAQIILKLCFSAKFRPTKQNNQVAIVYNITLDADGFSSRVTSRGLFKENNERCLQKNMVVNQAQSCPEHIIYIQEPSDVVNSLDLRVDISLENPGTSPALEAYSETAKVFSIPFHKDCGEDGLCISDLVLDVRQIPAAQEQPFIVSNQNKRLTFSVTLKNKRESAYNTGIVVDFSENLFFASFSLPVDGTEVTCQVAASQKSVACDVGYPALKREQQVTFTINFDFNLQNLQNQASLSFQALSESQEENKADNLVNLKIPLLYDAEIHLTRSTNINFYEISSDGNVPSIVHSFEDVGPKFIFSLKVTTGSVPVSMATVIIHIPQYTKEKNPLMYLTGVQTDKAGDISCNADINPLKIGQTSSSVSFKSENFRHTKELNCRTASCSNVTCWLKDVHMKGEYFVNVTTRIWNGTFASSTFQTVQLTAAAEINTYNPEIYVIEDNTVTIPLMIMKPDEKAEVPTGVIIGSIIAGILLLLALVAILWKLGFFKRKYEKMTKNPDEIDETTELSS

[4] = target: T1, disulfide-linked β1/γ1 dimer of r-laminin 8 (mouse β1, human γ1) (mouse; human, UniProt P02469 22-1786; P11047 34-1609); assay: non-reducing SDS-PAGE of anti-FLAG purified r-laminin 8
T1 construct: mature; also called covalently associated dimers; the dimers
Description: The r-laminin 8 bound to anti-FLAG M2 matrix with high specificity. […] (FIG. 1) Under non-reducing conditions, the purified protein hardly entered the gel, which was to be expected as the predicted molecular weight for the mature trimer is at least 570 kD. A minor fraction of the purified trimer appeared as non-covalently associated (see discussion). In this fraction, the β1 and γ1 chains appeared as covalently associated dimers, whereas the α4 chain was non-covalently associated. Under reducing conditions, the protein appeared as a broad band at around 200 kD, which reacted on Western blots with α4, EHS, γ1, and anti-FLAG antibodies. The predicted molecular weights for mature α4, β1, and γ1 polypeptides are 200, 195, and 174 kD respectively. Laminins are heavily glycosylated, which may account for the slight discrepancy in molecular weight observed in SDS-PAGE.

Sequence of integrin α6β1 on bovine adrenal microvascular endothelial (BCE) cells (bovine) (P53712 21-798): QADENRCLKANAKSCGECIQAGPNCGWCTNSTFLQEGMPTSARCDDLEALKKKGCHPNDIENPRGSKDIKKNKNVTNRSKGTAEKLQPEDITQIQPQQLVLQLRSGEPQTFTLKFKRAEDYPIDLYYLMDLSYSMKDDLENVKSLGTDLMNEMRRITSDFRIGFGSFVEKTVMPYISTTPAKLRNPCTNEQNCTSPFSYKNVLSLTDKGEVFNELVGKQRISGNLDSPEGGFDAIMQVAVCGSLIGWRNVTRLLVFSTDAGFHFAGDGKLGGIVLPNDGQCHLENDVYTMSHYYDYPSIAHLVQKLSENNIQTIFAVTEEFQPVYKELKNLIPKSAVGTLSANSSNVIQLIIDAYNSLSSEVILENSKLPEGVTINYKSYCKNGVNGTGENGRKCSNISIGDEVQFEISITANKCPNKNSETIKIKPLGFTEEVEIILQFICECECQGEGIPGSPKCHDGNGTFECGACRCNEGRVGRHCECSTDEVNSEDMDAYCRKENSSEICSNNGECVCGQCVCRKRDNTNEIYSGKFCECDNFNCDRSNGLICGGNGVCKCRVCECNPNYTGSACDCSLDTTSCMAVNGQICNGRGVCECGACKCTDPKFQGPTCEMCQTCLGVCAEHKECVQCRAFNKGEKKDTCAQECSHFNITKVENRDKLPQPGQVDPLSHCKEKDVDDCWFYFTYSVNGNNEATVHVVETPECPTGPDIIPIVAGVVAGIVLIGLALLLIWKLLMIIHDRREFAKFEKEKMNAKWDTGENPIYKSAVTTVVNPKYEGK

BCE cell adhesion to coated r-laminin 8 with anti-β1 mAb AIIB2, percent blocked [1]: 70%
IBE cell adhesion to coated r-laminin 8 with anti-α6 mAb, percent blocked [2]: 60%
Molecule: recombinant laminin 8 (human α4 chain with C-terminal FLAG epitope, mouse β1 chain, human γ1 chain) (from UniProt Q16363 25-1823; P02469 22-1786; P11047 34-1609)

HT-1080 cell adhesion to Type IV collagen with anti-integrin α2 mAb, percent of control [3]: 50%
Molecule: collagen type IV from EHS-tumor (from UniProt P02463 28-1669; P08122 26-1707)

binding result [4]: binds
B1: human laminin α4 chain containing a C-terminal FLAG epitope (other)
chain: ASGDDNAFPFDIEGSSAVGRQDPPETSEPRVALGRLPPAAEKCNAGFFHTLSGECVPCDCNGNSNECLDGSGYCVHCQRNTTGEHCEKCLDGYIGDSIRGAPQFCQPCPCPLPHLANFPESCYRKNGAVRCICNENYAGPNCERCAPGYYGNPFLIGSTCKKCDCSGNSDPNLIFEDCDEVTGQCRNCLRNTTGFKCERCAPGYYGDARIAKNCAVCNCGGGPCDSVTGECLEEGFEPPTGCDKCVWDLTDDLRLAALSIEEGKSGVLSVSSGAAAHRHVNEINATIYLLKTKLSERENQYALRKIQINNAENTMKSLLSDVEELVEKENQASRKGQLVQKESMDTINHASQLVEQAHDMRDKIQEINNKMLYYGEEHELSPKEISEKLVLAQKMLEEIRSRQPFFTQRELVDEEADEAYELLSQAESWQRLHNETRTLFPVVLEQLDDYNAKLSDLQEALDQALNYVRDAEDMNRATAARQRDHEKQQERVREQMEVVNMSLSTSADSLTTPRLTLSELDDIIKNASGIYAEIDGAKSELQVKLSNLSNLSHDLVQEAIDHAQDLQQEANELSRKLHSSDMNGLVQKALDASNVYENIVNYVSEANETAEFALNTTDRIYDAVSGIDTQIIYHKDESENLLNQARELQAKAESSSDEAVADTSRRVGGALARKSALKTRLSDAVKQLQAAERGDAQQRLGQSRLITEEANRTTMEVQQATAPMANNLTNWSQNLQHFDSSAYNTAVNSARDAVRNLTEVVPQLLDQLRTVEQKRPASNVSASIQRIRELIAQTRSVASKIQVSMMFDGQSAVEVHSRTSMDDLKAFTSLSLYMKPPVKRPELTETADQFILYLGSKNAKKEYMGLAIKNDNLVYVYNLGTKDVEIPLDSKPVSSWPAYFSIVKIERVGKHGKVFLTVPSLSSTAEEKFIKKGEFSGDDSLLDLDPEDTVFYVGGVPSNFKLPTSLNLPGFVGCLELATLNNDVISLYNFKHIYNMDPSTSVPCARDKLAFTQSRAASYFFDGSGYAVVRDIPRRGKFGQVTRFDIEVRTPADNGLILLMVNGSMFFRLEMRNGYLHVFYDFGFSSGRVHLEDTLKKAQINDAKYHEISIIYHNDKKMILVVDRRHVKSMDNEKMKIPFTDIYIGGAPPEILQSRALRAHLPLDINFRGCMKGFQFQKKDFNLLEQTETLGVGYGCPEDSLISRRAYFNGQSFIASIQKISFFDGFEGGFNFRTLQPNGLLFYYASGSDVFSISLDNGTVIMDVKGIKVQSVDKQYNDGLSHFVISSVSPTRYELIVDKSRVGSKNPTKGKIEQTQASEKKFYFGGSPISAQYANFTGCISNAYFTRVDRDVEVEDFQRYTEKVHTSLYECPIESSPLFLLHKKGKNLSKPKASQNKKGGKSKDAPSWDPVALKLPERNTPRNSHCHLSNSPRAIEHAYQYGGTANSRQEFEHLKGDFGAKSQFSIRLRTRSSHGMIFYVSDQEENDFMTLFLAHGRLVYMFNVGHKKLKIRSQEKYNDGLWHDVIFIRERSSGRLVIDGLRVLEESLPPTEATWKIKGPIYLGGVAPGKAVKNVQINSIYSFSGCLSNLQLNGASITSASQTFSVTPCFEGPMETGTYFSTEGGYVVLDESFNIGLKFEIAFEVRPRSSSGTLVHGHSVNGEYLNVHMKNGQVIVKVNNGIRDFSTSVTPKQSLCDGRWHRITVIRDSNVVQLDVDSEVNHVVGPLNPKPIDHREPVFVGGVPESLLTPRLAPSKPFTGCIRHFVIDGHPVSFSKAALVSGAVSINSCPAADYKDDDDK
notes: The α4 chain alone, as the non-crosslinked partner in the minor fraction of r-laminin 8; also called FLAG-tagged α4 chain
